The labels stand for the following.
B1: Kel1-AD (natural protein, S. cerevisiae, UniProt P38853 1-1164, looked up)
chain: MAGFSFAKKFTHKKHGKTPSDASISDQSREASLSTPPNEKFFTKQETPQKGRQFSQGYHSNVNKTSSPPMFARKQVSESRIQPSAVPPQQRNVSGPSTTLHKQLSKQREYTVWNRIKLQNSPFPRYRHVASAYVTDKNQIYVIGGLHDQSVYGDTWILTAFDNATRFSTTTIDISEATPPPRVGHAAVLCGNAFVVFGGDTHKVNKEGLMDDDIYLLNINSYKWTVPAPVGPRPLGRYGHKISIIATTQMKTKLYVFGGQFDDTYFNDLAVYDLSSFRRPDSHWEFLKPRTFTPPPITNFTMISYDSKLWVFGGDTLQGLVNDVFMYDPAINDWFIIDTTGEKPPPVQEHATVVYNDLMCVVGGKDEHDAYLNSVYFLNLKSRKWFKLPVFTAGIPQGRSGHSLTLLKNDKILIMGGDKFDYARVEEYDLHTSDIDMQRGTIVYTLDLARIKDLCPGVMDVPTDTPTPRNGNLDLATPVTPTSHQTKNMNVPISAAPLASAPSPAPKDFSDADRLNREVHNRNVSTEHQNQSHPVNSESHLIAEPNILTPYVPSESSQTPVMKITSNKPFDTPTIQKEPDLSETMDPTVGNQRIPSSIYGDNLTPANQIKNNSPILETLPSNEIKTPQNGNIEEIKHLPDADEKIDSTTTFDQEINGDKLGTSSMSKVEEDGNVADEDDEIGVAQMASSPSKDQFKIKHYNESSELSQNNTEIDKLSEPVDITIKKSDTAGHDSANHVIDASDEKNVSPMGDVPTDTKNEEASVPINRDATTEVVDRALFEKLRSELQSLKELTHEKALEAGAHIKELETELWQLKSQKNSGTTKEIDELDSVRLQSKCEILEADNHSLEDKVNELEELVNSKFLDIENLNEVIQFQNEKIKSLELEPNYKEKLEELQIEHENLSRENERLKNESKQHNEDIINNVANYSSQLGSLISHWKENRANSSFLESSSSLISVSDENGEKTVGEPYGDQSRHHRVVINKLTNRLDDLLERSQELTISKEKLSSEYHALKMEHSSLSQDVLVKENEIKKIQNDYKESISSMDSASKALMVSQRELEKYKSLNKKLIDELDELKFKNGVCSENFENGLRSTEESSNNVKNSNSIRENQFNIKINDLKAELFITNQERDDLKSEVLELKKRLLNLENNTKQVNEDADSDLL
B2: Kel2-DBD (natural protein, S. cerevisiae, UniProt P50090 1-882, looked up)
chain: MVPFKLTNKVPTDTGPSLISAQSVPRPIVFMDNRNNTRIVTPTLPPNQHRGISGASTALPWSPESKNTGKYIWNRVKLKNSPFPRYRHSSSFIVTNDNRIFVTGGLHDQSVYGDVWQIAANADGTSFTSKRIDIDQNTPPPRVGHASTICGNAYVVFGGDTHKLNKNGLLDDDLYLFNINSYKWTIPQPIGRRPLGRYGHKISIIASNPMQTKLYLFGGQVDETYFNDLVVFDLSSFRRPNSHWEFLEPVGDLPPPLTNHTMVAYDNKLWVFGGETPKTISNDTYRYDPAQSEWSKVKTTGEKPPPIQEHASVVYKHLMCVLGGKDTHNAYSNDVYFLNLLSLKWYKLPRMKEGIPQERSGHSLTLMKNEKLLIMGGDKTDYASPNIHDLQTSETDQGEGTLLYTLDLSSLNELCPGIMCESLHAGESFSNSLSGGFTPSKSTESENQEIINILTPRLPDSKVLSYNDIDEGAGSYSSALDDKAFERKSDREEKKPQSSKVDSSINKESPGTGIKVSKKNFPVLRGLTVDSEEYGSSSYKDTSCQKGIPKNLFDDLNLNLQTLRLEAQQKELETARHISQLEKEVQRLMVIKEASKDSNFQTARLKNLEIQKTFLESRINDLKNLLMVKLSQASKLCDQITIQNNGLKTCSEHVTIKRDIIDLENKCDVLKRQNEILVNNMQKITPELHTYLNESSCYLGKLLKSYPTSARPPSSEKDNQIYEKDSLNKIEKVINEMHETVRAKEKLHLETQKLNDERDSLRANLLDNNNKLDALRKLSDGSSKSMDLTKKAIHLSQSELEKYRKNNDDLQKEIDRIKTEQAEQDDKQEQRGAITHGNFDAFHRMKINNLKAELYMSKENRDSLKDELLALKKKLYTLEQKK

The target in the series “Kel2-DBD” is B2. As to the kind of experiment: two-hybrid.
The series “two-hybrid” concerns the molecule itself. As to the kind of experiment: two-hybrid.

As to B1, the “fold increase of β-galactosidase activity against Kel1-AD or Kel2-DBD alone” value in the series with Kel2-DBD was more than 100 fold. Regarding B2, in the series “two-hybrid”, the “interaction relative to that of Kel1p-AD with Kel2-DBD” value is approximately 10%.
